Data published in patent publication US20090274696A1, “METHODS FOR TREATING INFLAMMATION” (WYETH, priority 2008, published 2009).

Assays:
[1] = tested on: tracheal smooth muscle (TSM) of mouse tracheal rings; experiment: ISO-induced relaxation of CCh-contracted tracheal rings; type: cell-based; settings: in either presence or absence of rFIZZ1
Procedure: (§1) Experimental animals were sacrificed by CO2 asphyxiation. Tracheas were surgically excised and cleaned of adherent connective tissue. Each trachea was sectioned into rings 3-4 mm in length and cultured in DMEM containing 1.0 M HEPES, 1.0 M NaOH, 5% of heat-inactivated FBS (Hy-Clone, Logan, Utah), 0.2M glutamine, 1.0 M CaCl2, 2.5 μg/ml fungizone, 5 μg/mL insulin, 100 U/mL penicillin and 100 μg/mL streptomycin) (DMEM-5%) for 24 hours. For in vitro experiments, the tracheal rings were cultured in DMEM in the absence and presence of either 10 or 100 nM recombinant FIZZ1 (Leinco Technologies, USA) for 24 hours.
(§2) Trachea were supported longitudinally by a plexiglas rod with a stainless steel pin into the base of a double-jacketed, glass organ bath filled with 10 mL of Krebs-Henseleit (K-H) solution (37° C.) of the following composition: 118 mM NaCl; 4.7 mM KCl; 1.2 mM KH2PO4; 11.1 mM Dextrose; 1.2 mM MgSO4; 2.8 mM CaCl2; and 25 mM NaHCO3. The solution was maintained at a pH of 7.40-7.45 and continuously gassed with a mixture of 5% CO2 and […] for the duration of each experiment. […] Initial tensions of TSM were set at approximately 0.5 g and maintained for 1 hour. Agonists were given after a steady state of tension had been reached.
[CCh]-response curves at the doses ranging from 3×10^−8 to 10^−5 M were completed in tracheal rings in absence and presence of either FIZZ1 or LPS (0.1 ng/mL). Concentrations of agonist were increased only when force responses to the previous concentration had stabilized. To examine TSM relaxant responses to isoprenaline (ISO), tracheal rings were first contracted by an addition of 1.0 μM CCh (Sigma, USA). Once the contraction had stabilized, ISO (Sigma, USA) was introduced into each bath at increasing concentrations (3×10^−8-10^−5 M). […]
(§3) At the end of each force measurement experiment, tracheas were blotted on a gauze pad and weighted. Results were calculated as milligram of tension per milligram of TSM weight (mg/mg) and expressed as an individual percentage (%) of 10 μM CCh- or 200 μM papaverine-induced tension response in PBS-treated trachea. […]

[2] = tested on: tracheal smooth muscle (TSM) of mouse tracheal rings; experiment: CCh-evoked force generation in cultured tracheal rings; type: cell-based; settings: FIG. 4B, 100 nM heat-inactivated or native rFIZZ1, 0.1 ng/mL LPS, PBS 100±4.82, n=6
Procedure: as §1, §2
[CCh]-response curves at the doses ranging from 3×10^−8 to 10^−5 M were completed in tracheal rings in absence and presence of either FIZZ1 or LPS (0.1 ng/mL). Concentrations of agonist were increased only when force responses to the previous concentration had stabilized. To examine TSM relaxant responses to isoprenaline (ISO), tracheal rings were first contracted by an addition of 1.0 μM CCh (Sigma, USA). Once the contraction had stabilized, ISO (Sigma, USA) was introduced into each bath at increasing concentrations (3×10^−8-10^−5 M). […] In an additional experiment, the effect of FIZZ1 protein on the CCh-mediated force response was verified using 100 nM heat-inactivated FIZZ1 (natural and recombinant FIZZ1 solution heated at 70° C. for 60 min). Their dose-response curves were obtained as above. Fresh drug solutions such as CCh and ISO were made up on the day of the experiment. Doses of the above agents refer to the final bath concentration.
(§4) At the end of each force measurement experiment, tracheas were blotted on a gauze pad and weighted. Results were calculated as milligram of tension per milligram of TSM weight (mg/mg) and expressed as an individual percentage (%) of 10 μM CCh- or 200 μM papaverine-induced tension response in PBS-treated trachea. For the control group, CCh (papaverine)-mediated responses were normalized to the mean value of the maximal responses.

BAL cells [3] = experiment: Counts of BAL cells in intranasally challenged mice; type: in vivo, mouse; settings: intranasal once a day×5 days, 100 nM rFIZZ1 or 0.1 ng/ml LPS; vs PBS-treated mice
Procedure: (§5) For some experiments, ex vivo TSM tensions of fresh tracheal rings and BAL cell counts were measured at 24 hours after the last treatment of mice receiving an intranasal dose of either PBS, 0.1 ng/m: LPS or 100 nM rFIZZ1 (once a day×5 days).
(§6) PBS- and OA-treated mice were sacrificed and their airways lavaged once with 1.0 mL of PBS via tracheal cannulation. An equal volume of BAL from each mouse was collected and centrifuged (1200 rpm, 5 min). Total BAL cells were counted using a hemocytometer. BAL cells ([…]) collected from each sample were applied to a glass slide using a cytospin (800 rpm, 8 min) and then the slide was stained with Hema 3 Stain Set (Fisher Scientific) for the differential count of cells. The relative proportion of different cells counted from 300 cells/slide was factored to the number of total BAL cells collected in each group.

[4] = tested on: mouse tracheal epithelium cells (MTEC); experiment: Nitrite in MTEC supernatants, Griess reaction; type: cell-based; settings: PBS, 0.1 ng/mL LPS or 100 nM rFIZZ1; any measured time point; N=3
Procedure: MTEC culture was performed by following the protocol of You et al. (“Growth and differentiation of mouse tracheal epithelial cells: selection of a proliferative population,” Am J Physiol Lung Cell Mol Physiol, 2002, 283:L 1315-1321) with minor modification. Briefly, tracheas were incubated in 1.5 mg/mL pronase (Roche Molecular Biochemicals) for 18 h at 4° C. Cells were treated with 0.5 mg/mL crude pancreatic DNase I (Sigma-Aldrich) on ice for 5 min. After incubation in tissue culture plates for 3-4 h in 5% CO2 at 37° C., nonadherent cells were incubated in a plate coated with type I rat tail collagen (BD Biosciences) in modified BEBM (Lonza, Md. USA) containing 10 μg/ml insulin, 5 μg/ml transferrin, 25 ng/ml epidermal growth factor, 5 μg/ml epinephrine and 30 μg/ml bovine pituitary extract, 0.5 nM Hydrocortisone, 25 ng/ml hEGF, 15 nM Triiodothyronine, 0.25 μg/ml Gentamicin/amphotericin-B and 0.01 μM retinoic acid in 5% CO2 at 37° C. […]
Nitric oxide (NO) was examined by measuring an end product, nitrite, using the Griess reaction (Xu et al., “Arginase and autoimmune inflammation in the central nervous system,” Immunology, 2003; 110:141-148). […] Absorbance was read at 540 nm in an automated microplate reader. […]

[5] = tested on: airway epithelium of cultured trachea; experiment: Histological examination of tracheal rings and airway epithelium; type: cell-based, mouse; settings: cultured overnight with FIZZ1 100 nM or LPS 0.1 ng/mL
Procedure: Histological examination of the structure of the airway and the status of the airway epithelial layer was performed in whole/sectional fresh trachea and as well as trachea cultured overnight with and without 100 nM FIZZ1. To understand the role of airway epithelium in regulating contractility of TSM, we measured the contractile response of tracheal rings after the epithelium was mechanically removed. Briefly, airway epithelial cells were removed by gently rubbing the intraluminal surface with polyethylene tubing (Becton Dickinson & Company, MD USA) connected to a Precision Glide needle (30G1/2) followed by perfusion with 1.0 ml air bubbles and then 1.0 ml K-H solution (re). All of the experimental tracheas were stained with H & E solution (CAT hematoxylin, Edgar Degas Eosin Working Solution, Biocare Medical, Concord, Calif.) and photographed under a light microscope at ×4.0 and ×20 magnification. Tracheal morphometric analysis was performed using a computer-based image analysis system consisting of a Nikon Eclipse E800 microscope (Melville, N.Y. USA) with a SPOT RT Slider camera (Diagnostic Instruments, Inc., Sterling Heights, Mich. USA).

[6] = tested on: TSM of fresh tracheal rings; experiment: Force response of fresh tracheas from intranasally challenged mice; type: in vivo, mouse; settings: intranasal once a day×5 days, 100 nM rFIZZ1 or 0.1 ng/ml LPS; 24 hours after last treatment; PBS 100.00±14.63; N=5
Procedure: as §5, §2, §4

TSM of tracheal rings = experiment: TSM contractile response to CCh in OA-treated mouse model; type: in vivo; settings: PBS/PBS 100±6.77, n=6
Procedure: (§7) Animals were divided into three groups including phosphate buffered saline (PBS)-sensitized and -challenged (PBS/PBS), OA-sensitized and PBS-challenged (OA/PBS), and OA-sensitized and -challenged mice (OA/OA). Mice were intraperitoneally injected with an equivalent volume (100 μL) of PBS or OA (20 μg) with 2.25 mg Al(OH)3 in PBS on day 0 and 14. From day 25 to 34, mice were challenged with an aerosol of PBS or OA (5% in PBS) for 30 min once a day for 10 consecutive days.
Experimental animals were sacrificed by CO2 asphyxiation. Tracheas were surgically excised and cleaned of adherent connective tissue. Each trachea was sectioned into rings 3-4 mm in length and cultured in DMEM containing 1.0 M HEPES, 1.0 M NaOH, 5% of heat-inactivated FBS (Hy-Clone, Logan, Utah), 0.2M glutamine, 1.0 M CaCl2, 2.5 μg/ml fungizone, 5 μg/mL insulin, 100 U/mL penicillin and 100 μg/mL streptomycin) (DMEM-5%) for 24 hours. For in vitro experiments, the tracheal rings were cultured in DMEM in the absence and presence of either 10 or 100 nM recombinant FIZZ1 (Leinco Technologies, USA) for 24 hours. […]
as §3

FIZZ1 protein = FIZZ1 protein in BAL by Western blot; type: in vivo, mouse; settings: OA/OA-treated mice
Procedure: as §7
Protein expression levels of were examined using Western blot analysis. Briefly, aliquots (100 μg/well) of BAL supernatant and tracheal lysate were loaded onto 4-20% SDS-PAGE gel in an equal volume. Size-fractionated proteins were transferred to nitrocellulose membrane and then blocked with 5% nonfat dried milk in TBS at room temperature for 60 min. […] Immunoreactive bands were detected by chemiluminesence. Protein expression levels were evaluated in relative to expression of β-actin in the same tissue. Quantification of Western blots for phosphorylated signaling proteins was performed using ImageJ and relative band intensity was calculated as % of the intensity of the β-actin protein band.

BAL cells [7] = experiment: BAL cellular composition in OA-treated mouse model; type: in vivo; settings: OA/OA-treated mice vs PBS/PBS and OA/PBS; n=6
Procedure: as §7, §6

FIZZ1 mRNA = FIZZ1 mRNA expression in trachea by transcriptional profiling; type: in vivo, mouse; settings: OA/OA-treated mice over PBS/PBS- or OA/PBS-treated mice
Procedure: as §7
Three (3) groups of mice were analyzed using PBS/PBS, OA/PBS and OA/OA, with 18 animals per group. Tracheal rings from 6 animals per group were combined as replicates, to produce total RNA. […] RNA was quantified using the Nanoprop ND-1000 spectrophotometer. […] The Ovation kit utilizes the Ribo-SPIA process to linearly amplify and label, limiting amounts mRNA in a three-step process resulting in microgram quantities (Kum et al, “Novel Isothermal, Linear Nucleic Acid Amplification Systems for Highly Multiplexed Applications,” Clinical Chemistry, 2005; 51:1973-1981). Approximately 1.5 μg of purified and fragmented biotinylated cRNA, together with controls for quantitating the amount of each transcript, was hybridized to the mouse gene chip array, MOE 430—2.0 (Affymetrix) for 16-18 hours. […] Resulting signals were normalized and quantified using Gene Logic's MAS 5.0 software.

Molecule: CC(C)NCC(O)c1ccc(O)c(O)c1 (centres unmarked) [ISO, isoprenaline, reference compound]
- TSM relaxation, level relative to the relaxation by papaverine [1]: 50%

Molecule: lipopolysaccharide [LPS, reference compound]
- maximal responses (%) of the tracheal rings, CCh-evoked [2]: 96.40±4.31%
- number of BAL cells (BAL cells [3]): obvious increase
- changes in nitrite concentration in MTEC supernatants [4]: not obvious
- smooth muscle layers, histology [5]: clear and histologically intact
- Maximal tensions (%) of TSM, CCh-evoked, fresh trachea [6]: 108.28±5.44%

B1: ovalbumin (protein, UniProt P01012 2-386, looked up)
Ovalbumin: GSIGAASMEFCFDVFKELKVHHANENIFYCPIAIMSALAMVYLGAKDSTRTQINKVVRFDKLPGFGDSIEAQCGTSVNVHSSLRDILNQITKPNDVYSFSLASRLYAEERYPILPEYLQCVKELYRGGLEPINFQTAADQARELINSWVESQTNGIIRNVLQPSSVDSQTAMVLVNAIVFKGLWEKAFKDEDTQAMPFRVTEQESKPVQMMYQIGLFRVASMASEKMKILELPFASGTMSMLVLLPDEVSGLEQLESIINFEKLTEWTSSNVMEERKIKVYLPRMKMEEKYNLTSVLMAMGITDVFSSSANLSGISSAESLKISQAVHAAHAEINEAGREVVGSAEAGVDAASVSEEFRADHPFLFCIKHIATNAVLFFGRCVSP
notes: allergen used to sensitize and challenge mice (OA/OA, OA/PBS groups)
- contractile forces (%) of TSM to CCh (TSM of tracheal rings; OA/OA: OA-sensitized and -challenged mice): 127.75±3.54%
- contractile forces (%) of TSM to CCh (TSM of tracheal rings; OA/PBS: OA-sensitized and PBS-challenged mice): 105.21±2.71%
- FIZZ1 protein in the BAL (FIZZ1 protein): easily detected
- number of lymphocytes and eosinophils in the BAL (BAL cells [7]): markedly increased
- number of total BAL cells (BAL cells [7]): large increase
- Fc in FIZZ1 mRNA expression in trachea (FIZZ1 mRNA): 1000 fold

B2: heat inactivated rFIZZ1: FIZZ1 solution heated at 70° C. for 60 min (protein, UniProt Q9EP95 24-111, looked up)
Resistin-like alpha: DETIEIIVENKVKELLANPANYPSTVTKTLSCTSVKTMNRWASCPAGMTATGCACGFACGSWEIQSGDTCNCLCLLVDWTTARCCQLS
modifications: heat inactivated
notes: FIZZ1 solution heated at 70° C. for 60 min
- maximal responses (%) of the tracheal rings, CCh-evoked [2]: 100.00±4.77%
- maximal responses (%) of the tracheal rings, CCh-evoked ([2]; listed as Heat-inactivated FIZZ1): no observable effect
